This is an account of results in patent publication US6852319 (Scripps Research, dated 2005).

Experiment [1] deals with dIgA-G, plant-expressed dimeric IgA-G with mouse J chain (murine; mouse) (UniProt P01878). Briefly: initial estimate in extracts of SIgA-G plants (data not shown).
The target of experiment [2] is T1, purified 185 kD streptococcal antigen (SA) I/II cell surface adhesion molecule (Streptococcus mutans, UniProt P23504 39-1532).
T1 construct: also called purified SA; streptococcal antigen I/II
T1 sequence (looked up): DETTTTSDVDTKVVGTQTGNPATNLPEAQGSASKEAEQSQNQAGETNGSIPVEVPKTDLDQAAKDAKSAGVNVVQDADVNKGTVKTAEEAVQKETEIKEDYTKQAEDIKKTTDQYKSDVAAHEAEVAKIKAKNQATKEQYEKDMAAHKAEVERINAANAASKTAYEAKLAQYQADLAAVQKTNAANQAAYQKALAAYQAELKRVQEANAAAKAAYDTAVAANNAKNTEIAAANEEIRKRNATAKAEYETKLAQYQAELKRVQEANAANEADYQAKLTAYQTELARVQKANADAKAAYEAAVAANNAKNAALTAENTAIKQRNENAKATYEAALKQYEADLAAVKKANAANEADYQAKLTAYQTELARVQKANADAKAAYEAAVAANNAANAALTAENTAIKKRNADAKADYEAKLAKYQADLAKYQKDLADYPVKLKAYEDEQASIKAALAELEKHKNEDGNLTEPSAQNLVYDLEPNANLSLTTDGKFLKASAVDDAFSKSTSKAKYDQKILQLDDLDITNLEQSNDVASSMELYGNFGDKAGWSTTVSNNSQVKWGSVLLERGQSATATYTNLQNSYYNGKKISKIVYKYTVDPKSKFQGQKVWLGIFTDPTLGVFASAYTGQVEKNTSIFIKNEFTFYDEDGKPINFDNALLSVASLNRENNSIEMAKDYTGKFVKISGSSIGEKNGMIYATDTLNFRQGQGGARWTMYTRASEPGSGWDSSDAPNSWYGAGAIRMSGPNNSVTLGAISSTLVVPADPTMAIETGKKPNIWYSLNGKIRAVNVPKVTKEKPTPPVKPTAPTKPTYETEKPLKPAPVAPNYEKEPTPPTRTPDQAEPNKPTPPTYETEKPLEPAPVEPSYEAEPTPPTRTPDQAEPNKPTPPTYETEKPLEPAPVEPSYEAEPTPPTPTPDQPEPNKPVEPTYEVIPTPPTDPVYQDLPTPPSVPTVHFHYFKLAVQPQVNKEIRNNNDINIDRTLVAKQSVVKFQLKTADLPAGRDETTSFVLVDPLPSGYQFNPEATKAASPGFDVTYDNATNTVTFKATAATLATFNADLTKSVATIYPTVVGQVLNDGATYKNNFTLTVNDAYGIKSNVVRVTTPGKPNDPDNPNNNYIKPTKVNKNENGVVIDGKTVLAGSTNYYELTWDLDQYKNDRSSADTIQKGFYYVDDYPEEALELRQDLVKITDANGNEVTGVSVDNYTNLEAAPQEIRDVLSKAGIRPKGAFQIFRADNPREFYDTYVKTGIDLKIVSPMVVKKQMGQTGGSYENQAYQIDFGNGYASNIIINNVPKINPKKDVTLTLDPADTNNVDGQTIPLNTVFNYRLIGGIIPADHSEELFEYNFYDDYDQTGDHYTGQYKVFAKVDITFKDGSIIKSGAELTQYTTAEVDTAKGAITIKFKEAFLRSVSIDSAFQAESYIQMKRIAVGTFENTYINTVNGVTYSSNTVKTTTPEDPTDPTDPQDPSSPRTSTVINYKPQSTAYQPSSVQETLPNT
Briefly: ELISA of plant leaf extract on purified SA I/II coated plates.

Sequence of dIgA-G, plant-expressed dimeric IgA-G with mouse J chain (murine; mouse) (P01878 116-344, form in doubt): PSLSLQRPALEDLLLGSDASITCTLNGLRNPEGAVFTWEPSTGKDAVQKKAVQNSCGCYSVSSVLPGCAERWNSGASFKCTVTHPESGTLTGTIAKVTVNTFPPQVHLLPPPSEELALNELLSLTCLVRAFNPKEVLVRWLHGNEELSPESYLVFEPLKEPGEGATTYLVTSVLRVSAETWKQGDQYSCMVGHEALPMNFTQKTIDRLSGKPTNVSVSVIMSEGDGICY

B1: rabbit secretory component (SC) construct expressed in tobacco (receptor)
chain: QSSLLGPSSIFGPGEVNVLEGDSVSITCYYPTTSVTRHSRKFWCREEESGRCVTLASTGYTSQEYSGRGKLTDFPDKGEFVVTVDQLTQNDSGSYKCGVGVNGRGLDFGVNVLVSQKPEPDDVVYKQYESYTVTITCPFTYATRQLKKSFYKVEDGELVLIIDSSSKEAKDPRYKGRITLQIQSTTAKEFTVTIKHLQLNDAGQYVCQSGSDPTAEEQNVDLRLLTPGLLYGNLGGSVTFECALDSEDANAVASLRQVRGGNVVIDSQGTIDPAFEGRILFTKAENGHFSVVIAGLRKEDTGNYLCGVQSNGQSGDGPTQLRQLFVNEEIDVSRSPPVLKGFPGGSVTIRCPYNPKRSDSHLQLYLWEGSQTRHLLVDSGEGLVQKDYTGRLALFEEPGNGTFSVVLNQLTAEDEGFYWCVSDDDESLTTSVKLQIVDGEPSPTIDKFTAVQGEPVEITCHFPCKYFSSEKYWCKWNDHGCEDLPTKLSSSGDLVKCNNNLVLTLTLDSVSEDDEGWYWCGAKDGHEFEEVAAVRVELTEPAKVAVEPAKVPVDPAKAAPAPAEEKAKARCPVPRRRQWYPLSRKLRTSCPEPRLLAEEVAVQSAE
notes: also called rabbit SC
B1: the percent of SC associated with dimeric IgA-G in experiment [1] is 50%. The binding result in experiment [2] is on record as “no binding”.

B2: mouse J chain expressed in tobacco (other)
chain: GDDEATILADNKCMCTRVTSKIIPSTEDPNEDIVERNIRIVVPLNNRENISDPTSPLRRNFVYHLSDVCKKCDPVEVELEDQVVTATQSNICNEDDGVPETCYMYDRNKCYTTMVPLRYHGETKMVQAALTPDSCYPD
notes: also called joining chain
Take B2: in experiment [2], the binding result is on record as “no binding”.
